The record followed here is article PMC10352297, “Determining the structure of the bacterial voltage-gated sodium channel NaChBac embedded in liposomes by cryo electron tomography and subtomogram averaging” (Scientific Reports, 2023).

One may read the stoichiometry N as the number of molecules, sites or subunits per partner or assembly.

This data set concerns the molecule itself. Put plainly: cryo-EM structure; cryo electron tomography and subtomogram averaging of NaChBac in proteoliposomes (E. coli polar lipid extract, lipid-to-protein 2:1 wt/wt); polarized membrane, [K+]in 150 mM, [K+]out 3 mM, 1 uM valinomycin, -100 mV; 25 mM HEPES pH 7.0; 3116 particles, C1, 16.3 A.

B1: His6-GFP^A206K-NaChBac (natural protein, Bacillus halodurans, UniProt Q9KCR8 1-274, looked up)
chain: MKMEARQKQNSFTSKMQKIVNHRAFTFTVIALILFNALIVGIETYPRIYADHKWLFYRIDLVLLWIFTIEIAMRFLASNPKSAFFRSSWNWFDFLIVAAGHIFAGAQFVTVLRILRVLRVLRAISVVPSLRRLVDALVMTIPALGNILILMSIFFYIFAVIGTMLFQHVSPEYFGNLQLSLLTLFQVVTLESWASGVMRPIFAEVPWSWLYFVSFVLIGTFIIFNLFIGVIVNNVEKAELTDNEEDGEADGLKQEISALRKDVAELKSLLKQSK
notes: NaChBac, prokaryotic voltage-gated sodium channel from Bacillus halodurans; cDNA for full-length NaChBac in pET21a; the tagged subunit is 55 kDa; the channel without tags is about 120 kDa as a tetramer; also called his-GFP-NaChBac; his-tagged GFP^A206K-NaChBac; source: E. coli C41(DE3), purified (Ni-NTA, SEC in DDM), reconstituted into liposomes of E. coli polar lipid extract; not shown: His6, …
In the case of B1, the “stoichiometry N” value was 4.
